Reference: paper PMC3506662, “The Peripheral Binding of 14-3-3γ to Membranes Involves Isoform-Specific Histidine Residues” (PLoS ONE, 2012)
Where no end group is shown, it is not given here. [ ]: non-standard residue; d: D form. pS = N[C@@H](COP(=O)(O)O)C(=O)O

Columns and labels:
[1] = biological target: T1, human 14-3-3γ, wild-type (human, UniProt P61981 2-247); assay: SPR; data not shown; Biacore 3000, 25°C; wt-d14-3-3γ immobilised by amine coupling on CM5 (about 5 000 RU); THp-(1-43) injected in 10 mM Na-Hepes, pH 7.4, 0.005% P20; 0 mM salt; details: both partners purified
T1 construct: 14-3-3 protein gamma, human; d14-3-3γ is the same protein after extensive dialysis into phosphate-free 10 mM Na-Hepes, pH 7.4; also called wt-14-3-3γ; d14-3-3γ; source: E. coli (BL-21, codon+), GST fusion purified on glutathione-Sepharose 4B, cleaved by thrombin, further purified
T1 sequence: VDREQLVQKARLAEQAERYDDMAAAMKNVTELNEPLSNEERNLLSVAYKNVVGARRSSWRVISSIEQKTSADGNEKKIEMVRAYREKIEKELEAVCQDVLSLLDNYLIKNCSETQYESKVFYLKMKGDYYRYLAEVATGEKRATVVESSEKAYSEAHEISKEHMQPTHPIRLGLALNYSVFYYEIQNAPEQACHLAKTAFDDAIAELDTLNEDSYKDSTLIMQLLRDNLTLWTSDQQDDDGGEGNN

[2] = biological target: T1, human 14-3-3γ, wild-type; assay: differential scanning fluorimetry; d14-3-3γ titrated with peptide from a 0.21 mM stock; SYPRO Orange; 20 to 95°C at 2°C/min; shift of Tm fitted to equation 1; legend: 10 µM subunit in 10 mM Na-Hepes, pH 7.4, 150 mM NaCl; details: both partners purified

- Kd [1]: ~220 nM
- Kd [2]: ~190 nM
B1: THp-(1-43), Ser19-phosphorylated N-terminal peptide of human tyrosine hydroxylase isoform 1 (peptide)
peptide: MPTPDATTPQAKGFRRAV[pS]ELDAKQAEAIMSPRFIGRRQSLIE
notes: also called phosphopeptide; source: synthetic peptide (CPC Scientific), approx. 90% purity
